Results: patent publication US12371675B2, “Process and microorganism for synthesis of adipic acid from carboxylic acids” (THE GOVERNING COUNCIL OF THE UNIVERSITY OF TORONTO, priority 2015, dated 2025)

B1: PSPTO_2097: aldehyde reductase (AR) from Pseudomonas syringae (protein)
chain: MIEHLKLAGKVALVQGGSRGIGAAIVNRLAKEGAAVAFTYINSEVNALEIQDSINANGGRALAIRADSADEKAIRQAVQTTAETLGRLDILVNNAGVLAIAPLNEFSMQDFDKTLAINVRSVFIASQEAARHMEEGGRIINIGSTNAERMPFAGGATYAMSKSALIGLTKGMARDLGPQGITVNNVQPGPVDTDMNPAQGEFAESLKALMALPRYGKSEEIASFVAYLAGPEAGYITGASLTIDGGFSA
B2: PP_3370: aldehyde reductase (AR) from Pseudomonas putida (protein)
chain: MQYVKLGSTGLDISRLCLGCMTFGEPDAGTHPWTLGEDASRPIIRHAVEQGINFFDTANSYSAGTSEIILGKLLREFTRREETVIATKVFFPANMWEGASRPNEQGLSRKAIMANIDASLSRLGTDYVDLYQIHRWDYHTPIEETMEALHDVVKAGKARYIGASSMYAWQFAKAQQVAANHGWSRFVSMQNYLNLIYREEEREMIPLCLDQGVGLMPWSPMARGRLTRPHGQQTQRTRTDVSGQSFYEKTEVEDGRVIDVVEQIASERGVPMAQVALAWVLGRAGVSAPIVGASKPAHLDDALGALSLQLSEDEVARLQAPYVPHAVTGFK
B3: PA1146: aldehyde reductase (AR) from Pseudomonas aeruginosa (protein)
chain: MSDLHYWNYPTDILCGVGALEQLPRRCALAGARRPLLVTDPGMRALEPLRLVRECLERAGIDHDLFHELSSNPSLAEVQGGARRFEAGGHDALIALGGGSALDAAKGIALLSRDPHGLERFEWTQTLRSYPTLADYPPLGLPPLLALPTTAGTGSELGREAVLTDTQLGIKRVVGHRELLAACVFLDPRLTRGLPPALSAATGMDALTHHLEALFSPLYHPMSAGIALEGVRLVRQHLENAVRDGNDLAAREGMLVASASAAVAFQKGLGGVHALAHPLGARHHLHHGLLNAVLLPYVLLANRPAIEADAARLARYLELDEASFDGLLAWILELRARIGIPANLAALGLDGEDAQWVGEQALADLSSSATNALPLDARDYARIYRQAVAGTLA
B4: PA2918: aldehyde reductase (AR) from Pseudomonas aeruginosa (protein)
chain: MVDHSIKGKTVLITGGAKNLGGLIARDLAAHGAKAITIHYNSAASKADADATVAALQAAGAKAVALQGDLTSAAAMEKLFADAIAAVGKPDIAINTVGKVLKKPITEISETEYDEMSAVNSKSAFFFLREAGKHVNDNGKICTLVTSLLGAYTPYYAAYAGTKAPVEHFTRAASKEFGARGISVTAVGPGPMDTPFFYPAEGADAVDYLKNAAALSPFSKTGLTDIDDVVPFIRHLVSEGWWITGQTILINGGFSTK
B5: CV_2177: aldehyde reductase (AR) from Chromobacterium violaceum (protein)
chain: MRRLEGKQALITGGTSGIGLETAKQFLAEGAKVAITGRSEAGLAQANEVLGGRALLLKSDAGSLDDQRALPAQLRSHGWSRLDAAYLNAGDVTHLPLADWSEADFDRVMAVNLKGPFFLLQALSPLLANPSSVILCGSVGARIGVPSSSAYAASKAGLLSLARTLSAEWLDRGIRVNGLSPGPTHTPAFGKLGMPEDELPALRDRIRKLVPLGRLGRPEELAKAAVFLASDESSYMLGSELLVDGGVGNV
B6: BH2491: aldehyde reductase (AR) from Bacillus halodurans (protein)
chain: MLQGKTAIVTGASRGIGRATAMELARHGANVVVNYAGNKEKAEKVVAEIKELGVEAIAIQADVADSESVQAMVKETIDTFGAVDILVNNAGITRDNLFMRMKEEDWDAVIDTNLKGVFHCSKAVTRPMMKQRFGRIINVSSVVGAIGNAGQANYVAAKAGVIGLTKTLARELANRNITVNAVAPGFIETDMTGELPEDVKAQMLGQIPLARLGQPEEVAKAVRFLASDDASYLTGQTIHVNGGMVM
B7: RHA03305: OYE protein from Rhodococcus sp. RHA1 (protein)
chain: MQHTSTTASTLFSPLKLGSTELANRVALAPMTRVSGDEDGSANESIASYYEVFAKGGFGLLITEGIYPDTKYSQGYLNQPGLATAQHADSWKPVVERVHTAGARIFAQLMHAGAQSQGNRYVTETIAPSTTPPLGEQLGFYGGTGPYATPRALSLRDIDDVCAGFAQAAQHAVAAGFDGVEIHGANGYLLDQFLTDYMNQRDDEYGGSLANRLKIYREVIAAVRQVVGSKVTVGVRISQSKVSDYNHRWAGGESDAAEIFQGLAETGVDYIHTTEFDATAPAFADSGTTLAAFATKYSGLPVIANGQLGDPAAADALIENGSAQVISLGKPALANRDWPQRALDAKPIQSDVDPSVFSPMATVKSWELSA
B8: CV3501: OYE protein from Chromobacterium violaceum ATCC 12472 (protein)
chain: MNADKLLTPLTMGAVALSNRVVMAPLTRLRNIEPGDVPGPLAKEYYRQRASAGLIVAEGTHISPTAKGYAGAPGIYSEEQVRAWSEVTGAVHQDGGKIALQLWHTGRISHRSLQPNGDAPVGPSAIQADSRTNIRAADGSLVREQCDTPRALEIEEIEDIIEDYRRAADNARRAGFDMVEIHGAHGYLIDQFLSPAANVRTDQYGGSVENRARFLLEVVDAVVAEWDADHVGIRISPLGIFNGVSNTDQLDMALYLAEQLAKRKLAFLHISEPDWAGGPTLDDGFRAELRQRYPGVIIGAGGYSAEKAETLLKKGFIDAAAFGRSYIANPDLVERLKQNAPLNPPKPDTFYGGGAEGYTDYPTL
B9: PSPH4058: OYE protein from Pseudomonas syringae phaseolicola 1448A (protein)
chain: MTTIFDPITIGDLQLPNRIIMAPLTRCRADEGRVPNALMSEYYVQRASAGLILTEATSVTPMGVGYPDTPGIWSNDQVRGWSNITKAVHTAGGRIVLQLWHVGRISHPAYLNGETPVAPSAIAAEGHVSLMRPITPLPTPRALELAEIGDIVEAYRVGAENAKAAGFDGVEVHGANGYLLEQFLLTGSNQRTDEYGGSVENRARLLLEVTDAVIEVWGAGRVGVHLSPRFDMHDMSDANRTETFSYVAKELGKRGIAFICARERDAEDSLGPQLKKDFGGVYIANEKFTKDTANTWLAEGKADAIAFGVPYIANPDLPERLASDAPLNEAHPETFYGKGPVGYIDYPRL
B10: XCC0307: OYE protein from Xanthomonas campestris pv. campestris str. ATCC 33913 (protein)
chain: MSQLFTPINFGPLALANRIVIAPMCQYSAQDGRATDWHRIHLGTLSQSGAALLILEAAAVQPQGRISYADLGLYDDATEQALGEVLASVRRWSPMPIGIQLAHAGRKASTDLPWKGGEAIAPDHANGWQTVSASALPFRDGQPLPQALDAAGIDAVVEAFVTAAKRAERLELQLIELHAAHGYLMHQFLSPLSNQRSDAYGGSLDNRMRLTLRIFDAVRAAVSDQMAIGVRISATDWVDGGWDLPQSIALSKALDARGAHYIHVSSGGLDPRQQIPVQASYQIPFAEAIRAQVDTPVIGVGLITEPQQAEAILRDGQADAIALARGILYDPRWPWHAAAALGASVTPAPQYQRCEPREARGVFAS
B11: SAV1511: OYE protein from Streptomyces avermitilis MA-4680 (protein)
chain: MSALFEPYSLRDLTIPNRVWMAPMCQYSAAPQGPAAGAPHDWHFAHYAARATGGTGLIVVEATAVSPEGRISPYDLGIWNDTQVEAFRRITRFLAAQGTVPAIQLAHGGRKASTDRPWKGGAPLAADEHGWQPLGPSPVAFDERHPVPTELSVAEIRQIVGQFADAARRALAAGFEIAEIHGAHGYLINEFLSPHSNRRTDEYGGSYENRVRFALEVVDAVREVWPAGKPLFFRVSATDWLDEGGWTADDTVRFAAELQAHGVDLLDVSTGGNASGVRIPTGPGYQVPFAARVKAGTSLPVAAVGLITDAEQAEKILANGEADAILLGRELLRNPSFARLAARELGGDVHVPAQYHRSV
B12: BH1481: OYE protein from Bacillus halodurans C-125 (protein)
chain: MEHKLFSSYVVKGVTLKNRIVMSPMCMYSSDQKDGKIRPFHISHYESRAAGQVGLIIVEATAVTPQGRISPYDLGIWSDDHISGLTETVERIHAHGAKAAIQLAHAGRKAELDGPIIAPSAISYDKMKTPDAMTEEQISETIEAFKLGALRAKKAGFDIIEIHGAHGYLINEFLSPLTNKRTDAYGGSLENRYRLLREIISEIQTVWDGPLFVRISAAEYAEGGNELSDFITLAKWMKKQGIDLIDCSSGAVVPAPIPVYPGYQVPLAEAIRHEANIATGAVGLITSGIQAEEILQNERADLIFVARELLRNPYWPREAALELGTTISGPSQYDRAWL

assay: AR reductase activity, NAD(P)H oxidation at 340 nm; format: biochemical; settings: 10 mM, 1.8% DMSO; ND = no activity was detected
Protocol: Enzyme activity of purified ARs was measured spectrophotometrically in 96-well plates Reaction mixtures contained 100 mM HEPES buffer (pH 7.5), 0.4 mM NADH/NADPH, 10 mM adipaldehyde or butylaldehyde, and proteins (10 μg for adipaldehyde screen, 2 μg for butyraldehyde screen) in a final volume of 200 μL Reaction mixture for adipaldehyde screening contained 1.8% DMSO. Enzyme reactions were monitored by following the decrease in absorbance at 340 nm (ε340 nm=6,220/M·cm) due to oxidation of NAD(P)H to NAD(P)+.

In order of rising “Activity [U/mg protein] Adipaldehyde” value:
1. B2  0.437 ± 0.043 U/mg protein
2. B3  0.696 ± 0.032 U/mg protein
3. B1  1.046 ± 0.009 U/mg protein

same assay, conditions: 10 mM; ND = no activity was detected

In order of rising “Activity [U/mg protein] Butyraldehyde” value:
1. B6  0.108 ± 0.026 U/mg protein
2. B4  0.137 ± 0.03 U/mg protein
3. B5  0.151 ± 0.054 U/mg protein
4. B1  0.59 ± 0.597 U/mg protein
5. B2  1.516 ± 1.382 U/mg protein
6. B3  1.68 ± 0.144 U/mg protein

assay: OYE hydrogenation activity screen, NADPH oxidation at 340 nm; format: biochemical; settings: 1 mM substrate, 0.25 mM NADPH, 2.5 μg protein; cut-off 0.05 U/mg protein; ND = not detected
Protocol: 25 putative OYE genes (Table 1) were cloned based on the Pfam domain of the FMN oxidoreductase family PF00724. Purified OYEs were screened for hydrogenation activity against acrolein, 2-cyclohexn-1-one, cis,cis-muconic acid, trans,trans-muconic acid, and 2-hexendioic acid. Substrate specificity was measured spectrophotometrically in 96-well plates by following incubation for 20 min at room temperature in the anaerobic chamber. Buffers and reagents were also degassed and sparged with Ar. Reaction mixtures contained potassium phosphate (50 mM and pH 7.0), NaCl (10 mM), NADPH (0.25 mM), various substrates (1 mM) and protein (2.5 μg) in a final volume of 200 μL. Enzyme reactions were monitored by following the decrease in absorbance at 340 nm (ε340 nm=6,200/M·cm) as a measure of the conversion of the cofactor NADPH to NADP+.

In order of rising “Activity [U/mg protein] acrolein” value:
1. B11  0.05 U/mg protein
2. B7  0.08 U/mg protein

In order of falling “Activity [U/mg protein] 2-cyclohexen-1-one” value:
1. B11  0.23 U/mg protein
2. B9  0.22 U/mg protein
3. B10  0.15 U/mg protein
4. B12  0.13 U/mg protein
5. B8  0.07 U/mg protein
